The results in this text go back to article PMC6338552 (Biochemistry, 2018).

To fix the notation:
B1: TMR-JIPtide (peptide)
peptide: {TMR}-RPKRPTTLNLF-OH
B2: His6-JNK1α1 (enzyme, UniProt P45983-2 1-384, looked up)
chain: MSRSKRDNNFYSVEIGDSTFTVLKRYQNLKPIGSGAQGIVCAAYDAILERNVAIKKLSRPFQNQTHAKRAYRELVLMKCVNHKNIIGLLNVFTPQKSLEEFQDVYIVMELMDANLCQVIQMELDHERMSYLLYQMLCGIKHLHSAGIIHRDLKPSNIVVKSDCTLKILDFGLARTAGTSFMMTPYVVTRYYRAPEVILGMGYKENVDLWSVGCIMGEMVCHKILFPGRDYIDQWNKVIEQLGTPCPEFMKKLQPTVRTYVENRPKYAGYSFEKLFPDVLFPADSEHNKLKASQARDLLSKMLVIDASKRISVDEALQHPYINVWYDPSEAEAPPPKIPDKQLDEREHTIEEWKELIYKEVMDLEERTKNGVIRGQPSPLAQVQQ

Assay in all cases: fluorescence polarisation
On the technique in general: Fluorescence polarisation rises when a labelled molecule tumbles more slowly, as on binding a larger partner.

For test [1], the target named is T1, His6-JNK3α1 (UniProt P53779-2 1-422).
In test [2] the target is B2.
For test [3], the target named is T2, His6-JNK2α1 (UniProt P45984-2 1-382).
For test [4], the target named is T1, His6-JNK3α1. This is another data set of the same source.
Test [5] concerns the target T1, His6-JNK3α1. The source holds these as a separate data set.
In test [6] the target is B2. This is another data set of the same source.
In test [7] the target is T2, His6-JNK2α1. The source holds these as a separate data set.
The target of test [8] is T1, His6-JNK3α1. The source holds these as a separate data set.
Test [9] deals with B2. This is another data set of the same source.
For test [10], the target named is T2, His6-JNK2α1. The source holds these as a separate data set.
The target of test [11] is T1, His6-JNK3α1. This is another data set of the same source.
Test [12] has as its target B2. This is another data set of the same source.
Test [13] deals with T2, His6-JNK2α1. This is another data set of the same source.
Test [14] deals with T1, His6-JNK3α1. The source holds these as a separate data set.
The target in test [15] is B2. The source holds these as a separate data set.
Test [16] addresses T2, His6-JNK2α1. This is another data set of the same source.
Test [17] has as its target T1, His6-JNK3α1. This is another data set of the same source.
The target in test [18] is B2. This is another data set of the same source.
In test [19] the target is T2, His6-JNK2α1. The source holds these as a separate data set.
Test [20] has as its target T1, His6-JNK3α1. This is another data set of the same source.
Test [21] has as its target B2. This is another data set of the same source.
Test [22] addresses T2, His6-JNK2α1. This is another data set of the same source.
The test “TMR-JIPtide” addresses B1.

Where two headings read alike, the source gives them in different places. TMR = 6-carboxytetramethylrhodamine

A word on the Kd: it is the concentration at which binding is half-saturated. A higher Kd goes with weaker binding.

As for B1, the Kd with His6-JNK3α1 [1] was found to be 480 nM; with His6-JNK1α1 [2] it was 230 nM; with His6-JNK2α1 [3] it was 4.6 µM; with His6-JNK3α1 [4], 1900 nM; with His6-JNK3α1 [5] it was 12 µM; with His6-JNK1α1 [6] it was 14 µM. The Kd with His6-JNK2α1 [7] came to 17 µM; in the test with His6-JNK3α1 [8] it was 1700 nM; with His6-JNK1α1 [9], 680 nM; with His6-JNK2α1 [10], 37 µM; with His6-JNK3α1 [11] it was 640 nM; with His6-JNK1α1 [12], 250 nM. The equilibrium dissociation constant (Kd) in the test with His6-JNK2α1 [13] amounted to 3000 nM; with His6-JNK3α1 [14], 1500 nM; in the test with His6-JNK1α1 [15] it was 440 nM; with His6-JNK2α1 [16], 5.1 µM; with His6-JNK3α1 [17], 2800 nM; with His6-JNK1α1 [18], 1500 nM. For the same molecule, the dissociation constant (Kd) with His6-JNK2α1 [19] was determined as 6 µM; with His6-JNK3α1 [20], 4.6 µM; with His6-JNK1α1 [21] it was 3.2 µM; in the test with His6-JNK2α1 [22], 15 µM.

As for B2, in the test with TMR-JIPtide, the “fold tighter binding than apo-JNK1” value is 2 fold.
